T1: canine OX40L, full length membrane form, expressed on HEK293 cells (canine)
T1 construct: also called OX40L expressing HEK; HEK OX40L cells
T1 chain: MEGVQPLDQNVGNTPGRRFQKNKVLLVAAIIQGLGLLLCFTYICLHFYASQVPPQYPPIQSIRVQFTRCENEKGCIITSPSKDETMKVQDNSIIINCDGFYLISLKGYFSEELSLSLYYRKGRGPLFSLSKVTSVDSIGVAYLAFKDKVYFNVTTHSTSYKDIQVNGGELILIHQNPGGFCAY


What was measured:
[1] = molecular target: T1, canine OX40L, full length membrane …; experiment: flow cytometry, OX40L HEK minus WT HEK
Experimental: (§1) CHO supernatants diluted in FACS buffer (PBS containing 3% FBS) at 1, 5 or 10 μg/ml were used to screen for their binding capacity to canine OX40L using a cell-based assay. In brief, HEK293 or MEF cells (or any other commonly used cell lines) expressing canine OX40L at the cell surface are incubated with 100 μll of FACS buffer containing the candidate antibody for 30′ on ice. Cells are washed with 150 μl FACS buffer followed by centrifugation at 300 g for 3 min. The cell pellet is resuspended in FACS buffer containing a 1:1000 dilution of a fluorescently labelled secondary antibody recognising the canine Fc region of the test antibody for 30 min in the dark, followed by washing with 150 μl FACS buffer. Cells are resuspended in FACS buffer and flow cytometry performed using either a […] cytometer, followed by data analysis using FlowJo (FIG. 6 and Table 4).

[2] = molecular target: T1, canine OX40L, full length membrane …; experiment: cell-based or functional assay
[3] = molecular target: T1, canine OX40L, full length membrane …; experiment: flow cytometry
Experimental: as §1

Row | Binder | GEO mean difference [1] | % Signal Inhibition Average [2] [%] | % Signal Inhibition Rep1 [2] [%] | % Signal Inhibition Rep2 [2] [%] | % Signal Inhibition Rep3 [2] [%] | GEO mean OX40L expressing HEK [3]
1 | PMX087 (antibody, V domains shown) VH: EVHLVESGGDLVKPGGSLRLSCVASGFTFSNYHMSWVRQAPGKGLQWVAFINSGGSGTSYADAVKGRFTISRDYAKSTLYLQMNSLRAEDTAVYYCASGYIWTHFDYWGQGTLVTVSS VL: SYVLTQLPSVSVTLRQTARITCGGDIIGSKNVYWYQQKLGQAPILIIYRDSNRPTGIPERFSGASSGNTATLTISGALAEDEADYYCQVWDSSTSVFGGGTHLTVL | 1.04e+06 | 32.6 | 29.8 | 46.2 | 21.6 | 1.05e+06
2 | PMX110 (antibody, V domains shown) VH: EVQLVESGGDLVRPGGSLRLSCVASGFTFSSYHMSWVRQAPGKGLQWVAFINSGGSSTTYADVVRGRFTISRDYAKNTLYLQMNSLRAEDTAVYYCASGSILTHFDYWGQGTLVTVSS VL: SFVLTQLPSVSVTLRQTARITCGGDSVGSKSVYWYQQKLGQAPVLIIYRDSNRPTGIPERFSGASSGNTATLTISGALAEDEADYYCQVWDNSNKAMFGGGTHLTVL | 28400 | 37.4 | 55.2 | 43.1 | 13.7 | 31900
3 | PMX109 (antibody, V domains shown) VH: EVQLVESGGDLVRPGGSLRLSCVASGFTFTNYHMSWVRQAPGKGLQWVAFINSGGSSTTYTDVVRGRFTISRDYAKNTLYLQMNSLTAEDTAVYYCASGSIWTHFDHWGQGTLVTVSS VL: SFVLTQLPSVSVTLRQTARITCGGDSVGSKSVYWYQQKLGQAPVLIIYRDSNRPTGIPERFSGASSGNTATLTISGALAEDEADYYCQVWDNSNKAIFGGGTHLTVL | 629000 | 53.3 | 67.9 | 69.5 | 22.5 | 633000
4 | PMX107 (antibody, V domains shown) VH: AVQLVESGGDLVRPGGSLRLSCVASGFTFSSYHMNWVRQAPGKGLQWVAFINSGGSSTTYADVVRGRFTISRDYAKNTLFLQMNSLRAEDTAVYYCAIVSIWTHFDYWGQGTLVTVSS VL: SFVLTQLPSVSVTLRQTARITCGGDIIGSKNVYWYQQRLGQAPVLILYRDTNRPTGIPERFSGASSGNTATLTISGALAEDEADYYCQVWDNSNKAMFGGGTHLTVL | 55200 | -5.31 | 7.14 | 20.9 | -44 | 58800
5 | PMX292 (antibody, V domains shown) VH: AVQLVESGGDLVRPGGSLRLSCVASGFTFSNFDMYWVRQAPGRGLQWVATISYDGFNTYSTDTVRGRFTISRDNARNTVYLQMNSLRVEDTAVFYCTARRFGLGYWGQGTLVTVSS VL: DIFMAQTPPSLSVSPRETASISCKASQSLLHSDGNTYLDWYLQKPGQSPQLLIYLVSNRFPGVSDRFSGSGSGTGFTLRISRVEASDTGVYYCGQGTQLPYTFSQGTKLEIK | 467000 | 71.6 | 97.5 | 54.4 | 62.9 | 471000
6 | PMX085 (antibody, V domains shown, also called PMX85) VH: EVKLVESGGDLVKPEGSLRLSCVVSGFTFSRYGMSWVRQAPGKGLQWVAYISSDGRSSSYTDAVQGRFTISSDNAKNTLYLQMNSLTTEDTAVYYCAKLGRGFNFNFWGQGTLVTVSS VL: SYVLTQLPSKNVTLKQPAHITCGGDNIGSKSVHWYQQKLGQAPVLIIYYDSSRPTGIPERFSGANSGNTATLTISGALAEDEADYYCQVWDSSASVFGGGTHLTVL | 826000 | 46.9 | 43.8 | 56.2 | 40.8 | 839000

More lines, now with the values ahead:

Row | GEO mean difference [1] | % Signal Inhibition Average [2] [%] | % Signal Inhibition Rep1 [2] [%] | % Signal Inhibition Rep2 [2] [%] | % Signal Inhibition Rep3 [2] [%] | GEO mean OX40L expressing HEK [3] | Binder
7 | 849000 | 18.3 | 5.85 | 35.1 | 14 | 857000 | PMX086 (antibody, V domains shown) VH: EVQLVESGGDLVKPGGSLRLSCVASGFTFSSYHMSWVRQAPGKGLQWVAFINSAESSTTYADAVKGRFTISRDNAKNTLYLQMNSLRAEDTAVYYCAGGYIWTHFDYWGQGTLVTVSS VL: SYVLTQLPSVSVTLRQTARITCGGDIIGSKSVYWYQQNLGQAPVLIIYRDTNRPTGIPERFSGASSGNTATLTISGALAEDEADYYCQVWDSSTSVFGGGTHLTVL
8 | 643000 | 38.9 | 44.2 | 37.4 | 35.2 | 647000 | PMX111 (antibody, V domains shown) VH: EVQLVESGGDLVRPGGSLRLSCVASGFTFSSYHMNWVRQAPGKGLQWVAFINSGASSATYADVVRGRFTISRDYAKNTLYLQMNSLRAEDTAVYYCASGSIWTHFDFWGQGTLVTVSS VL: SFVLTQLPSVSVTLRQTARITCGGDSVGSKSVYWYQQKLGQAPVLIIYRDSNRPTGIPERFSGASSGNTATLTISGALAEDEADYYCQVWDNSNKAMFGGGTHLTVL
9 | 607000 | 82.2 | 95.6 | 89.8 | 61.3 | 611000 | PMX108 (antibody, V domains shown) VH: EVQLVESGGDLVRPGGSLRLSCVASGFTFTNYHMSWVRQAPGKGLQWVAFINSGGSSTTYTDVVRGRFTISRDYAKNTLYLQMNSLTAEDTAVYYCASGAIWTHFDHWGQGTLVTVSS VL: SFVLTQLPSVSVTLRQTARITCGGDSVGSKSVYWYQQKLGQAPVLIIYRDSNRPTGIPERFSGASSGNTATLTISGALAEDEADYYCQVWDNSNKAIFGGGTHLTVL
10 | 459000 | 73.3 | 95.9 | 70.3 | 53.6 | 463000 | PMX291 (antibody, V domains shown) VH: EVQLVESGGDLLKPGGSLRLSCVASGFPFRNYDMTWVRQAPGKGLQWVAAIHYDGSNTYYTDAVKGRFTISRDNARNTVFLQMNSLRAEDTAVYYCAKKFNNYRPFDYWGQGTLVTVSS VL: DIVMTQTPPSLSVSPRETPSISCKASQSLLRSDGNTYLEWYLQKPGQSPQLLIYLVSNRFTGVSDRFSGSGSGTDFTLRISRVEANDAGVYYCGQGTQLPWTFGAGTKVELK
11 | 775000 | 7.21 | 17 | 3.51 | 1.17 | 783000 | PMX088 (antibody, V domains shown) VH: EVQLVESGGDLVKPGGSLRLSCVASGFTFNTYHMNWVRQAPGKGLHWVAFINSGGTGTGYSDTVKGRFTISRDYAKNTLYLQMNSLRAEDTAVYYCVSGSIWTHFDYWGQGTLVTVSS VL: SYVLTQLPSVSMTLRQTAHITCGGDIIGSKSVYWYQQKLGQAPVLIIYRDTNRPTGIPERFSGASSGNTATLTISGALAEDEADYYCQVWDSNTQAVFGGGTHLTVL

Source: patent publication US20250340659A1 (PETMEDIX, published 2025)
